{"source": "the DeepSol protein solubility set"}
{"assay": "soluble on expression in E. coli; label from the status in PepcDB or PDB records"}
{"sequence": "MSLGRHSDNSLQESANHTVLLTSPTNTIPKDSRQRSQQFMQNLQDEICTALEQLDGKASFHQDHWERAEGGEGRTRVIREGRVFEQGGVNFSAVWGNSLPASILAQRPEAAGHEFFATGTSMVLHPRNPYVPTVHLNYRYFEAGPIWWFGGGADLTPYYAFKEDAVHFHQTLKNACDVHNPEYYPTFKRWCDEYFYLRHREEQRGIGGIFFDYQDASGKLYVESQTDSSVAIYSQKVGNVARNWEDIFAFVQSCGQAFLPAYLPIVERRQGIEYGDRQRNFQLYRRGRYVEFNLVYDRGTVFGLQTKGRTESILMSLPPLARWEYCYEPEAGSPEAELTEVFLQPRDWVEGHHHHHH", "soluble on expression in E. coli": "not soluble"}
{"sequence": "MSLGSMSATPLQAGLKTLQLTEPFRIAHGTSTERQVLRLRWNGAVGEAPVVPYYKESAAVTLEWLQALDWNGSPAPKDGPRLGRLALDLLWHDAVGRDKRQTLGQMLHLNPAQTPPGCRSFSIPTDLDKFAEKVAQVSRQFQVLKLKTGSGNVEFDEAIVATARKAAPDAKLLVDANGGWTVEETAAILPKLVKYDLTLVEQPFHHDGGSESWRELKYLLPSHSIPLYADESAQGPDDVLTLAGLVDGVNVKLLKCGSIAEAQTMIRFARASGMGVLLGCMIESSVGVTAAAHLAPLADWIDLDGHLYVADDDYEGVSYDEQGRLHLRDLPGLGVTPREGHHHHHH", "soluble on expression in E. coli": "soluble"}
{"sequence": "MSLGSNKTIIINLNNLEHNLNLIKNKIGEKEIVATLKGDAYGHGLINIFKFLKSKNINYFGLSNIEDAKTLKKIDKNIKILMYIKVDKKEIKNLIKFELVPFVSDFEYLFLIEKECALQKNKIKVHLKIDIGMNRYGIKIDDALEIATYIQNSKFLELEGICSHLPSIENFKTTQKQIEQFLFFLETLKQKNIHPKFVHISNSGHIINYKLNPQFNMVRPGLILYGYCQSLKNKKPALNFKPVLSLFSKVIFIKNVKKGEKISYSGIFQAKEDMKIGIIPIGYFDGIPQNISNDFYFLINNKKCKIRGKVCMNLTIVEIPKDLKVKTGSKVEIVSEKLSIDEMSKFSKRSHYELLCNIGKYEKRKYLDEGHHHITTDPNSSSVDKLAAALEHHHHHH", "soluble on expression in E. coli": "soluble"}
{"sequence": "MSLGSNPPTKILDFLFLGGVSDATNPEFLRRENIVTILNVSREEYWSVDKGITIHPFPLEDNAEENIRKFFSHTYRLLEAARSSASPARPPCVLVHSRYGISRSVTIVLAYLMRRNGWSLNDALQYVMCRRPHVEPNVGFMNVLLSFQRDMDPQKRDIQRNEGHHHHHH", "soluble on expression in E. coli": "not soluble"}
{"sequence": "MSLGTRAPSFTPERSVEISGGEDGYFQARGTISGPLGETLAGRLSAYRTRDDGYVKNLHDGNTLNGGARQGFRGQLLFKPNDDFSLRWIGDYNEEDSDNGVLTLFSSGPTVNGVNRYEQRAAAAGATLVDGHRRKVNFDSDQQVTVFQGGTSVEANWKLANDFTLTSISAYRWWDFTPRNDDGLDVPAAYNAGVSVRDKQWSQEIRLASPSGGFFDYVLGAYYFGQDLDNKSFTDYGPRADIWNGTPAGALSDVSTRGRGHIDTDSYALFAQGTWHLTERLDLTAGVRGTYEEKSAWVEREGHHHHHH", "soluble on expression in E. coli": "soluble"}
{"sequence": "MSLHEKKKENVPEWQHFDAAIFNKAKKEHKLVLLHLGANWCHWCHVMEEQTYTDPFVLELLNKSYIACKEDHDERQDLTSLYAAYGWPATIVFDADGNELLKEAGFISSDRFIALLKKLVKNPTPMPTDSVQIEPAVASDSSTQQALNTLKKKFYSSLDIEGGGFNYAQKYIDFETFEYAFNHSENDSILTKWLYNSVVNSAGLNDNVWGGVFQYSTHSDWNHLHYEKLLSIQARYIKMYCWYYKRFNDADALSHAESAAKYVQRFLDDPKGGFYNSQDADVTPGEKATEYFKLNNADRIKKGIPAIDKNSYTSDNAEMIEACIILSAATGNNTYLEKAVRCFDFIKKNNKTNNAYAHGSNYTNSISLKDNIAIVKSALLLYRATQDAAYKSEALRIIQEVAGTFYSKKGYMISFIGNSPIKGSYNITENIEACRLLNYCSHVFNEPKYKILAQTIFGFLTNENLVKTMSTEPGILSAYEELNTEPLKAVLMIKNGTELKTDFLNSSLSFPAFYFDNTIYTSTTIPSDKYELFDSFDKNFIVACTASYCSSPMFSKDGFEKFIYRRAFSTEGHHHHHH", "soluble on expression in E. coli": "soluble"}
{"sequence": "MSLHNRFSLAQTLVTTVEAESGTRAGGLTIATANAGYSGTGYITNMTSAADKLTIPVTVPSAGNYQLVIRYNGPYGPKDQDIYVNGVFVSSLHFPETTGYTDLTAGSLTLNAGANTIGIYKNWGYTDFDKISLFTVPLHDYSTVAPNLIDANATPEAKALYNYIKAGYGTRIISGQTSDYYNTVSPNAAKKPVIRAYDFQHYTVGYSYLWNNATASHTFGWEDDGTTQAAIDWYNSTCQKGMVAFHWHWHSPSGGQAGTNTFYTNSTAFDVTKAVTQGTPEYTAVIRDIDSIATQLKRLQAAGVPVLWRPLHEAGGAWFWWGAKGPAAALALYDMVYNRIVNYHNIHNLIWQWSTPEANWYPGNSKVDMLGYDSYPGAYNYGTQKLIFDQLYTIVNGQKILAMTENGPIPDPDLCFSSDAKWAYVMSWSDLVTQQNSSAQLNLVYNHAKVLTLDEVTTATNTAQLTAEGHHHHHH", "soluble on expression in E. coli": "soluble"}
{"sequence": "MSLIARRNPIEQLPAIAQDPDKFGVLLSAAEFRTHLVESIRQARKRIYLVALYLENDDAGREILTELYAAKQRNPGLEIHICVDWHRAQRGLIGAAESEGNAAMYRDFAQQHEHCIPVYGIPVRGREVFGVLHLKGFIIDDQVIYSGASLNNVYLQFHGRYRFDRYHTLENAELADSMVHFIQQEMLAHPAVNNLACGSKPTTKEIKSDIRQFRASLAQANYQFAKQKVNEGQVAVTPLVGLGRRRNRLNQSIIQLLASAKDEVFICTPYFNFPPSIAKEVKKALRRGVKVHIVIGDKTANDFYIAPEEPFKTIGGLPYLYELNLRRFAKANEAHIASRKLSIHLWKHENHSFHLKGIWVDKRYMLITGNNLNPRAWKLDLENAILIRDDYHHLTTKFEAEIDNILQHTQLICTYKQIEKPEHYPEKVQRLVRRIMRLKADRVLKQILEGHHHHHH", "soluble on expression in E. coli": "not soluble"}
{"sequence": "MSLICSISNEVPEHPCVSPVSNHVYERRLIEKYIAENGTDPINNQPLSEEQLIDIKVAHPIRPKPPSATSIPAILKALQDEWDAVMLHSFTLRQQLQTTRQELSHALYQHDAACRVIARLTKEVTAAREALATLKPQAGLIVPQAVPSSQPSVVGAGEPMDLGELVGMTPEIIQKLQDKATVLTTERKKRGKTVPEELVKPEELSKYRQVASHVGLHSASIPGILALDLCPSDTNKILTGGADKNVVVFDKSSEQILATLKGHTKKVTSVVFHPSQDLVFSASPDATIRIWSVPNASCVQVVRAHESAVTGLSLHATGDYLLSSSDDQYWAFSDIQTGRVLTKVTDETSGCSLTCAQFHPDGLIFGTGTMDSQIKIWDLKERTNVANFPGHSGPITSIAFSENGYYLATAADDSSVKLWDLRKLKNFKTLQLDNNFEVKSLIFDQSGTYLALGGTDVQIYICKQWTEILHFTEHSGLTTGVAFGHHAKFIASTGMDRSLKFYSL", "soluble on expression in E. coli": "soluble"}
{"sequence": "MSLIEQLIQQAQPYWQQYIEHEFVQQLAKGTLPKACFQHYLKQDYLYLFHYSRAFALGVFKAKNFAEMETPRKTLEILCQEIQLHLNYCREWGISEQEIFTTQESAACIAYTRYLLDCGMTGSLAELYAAVTPCALGYAQVARYITQHYPRLPNNPYQTWIDTYASEEFQQAAQETVDFLTALCKPLNPSQLAEIQQIFTTATRMEIAFWQMGLDLAEGGSHHHHHH", "soluble on expression in E. coli": "soluble"}
{"sequence": "MSLIKKVLPLAEQLRPKNLNDIVGQDHILGENGLITKTIESQIPLSVILWGPPGCGKTSIARLYAQAFNMQFISMSAIFSGVADLKKTIKEAQNQPLFHKGTLLFVDEIHRFNKSQQDAFLPFVENGTIILIGATTENPSFYLNGALLSRLRVLPIYPLDGFSLEQLLERYEKQFAPLPLTAEARHWLITCAQGDGRYLYNLIENLRYASKQILDIPLLEKIFQKRSPLFDKRGDQHYNLISALHKSVRGSDPNAAIYWFTRMLEGGEEPLFLARRLIRMAVEDIGLSDPQALPLAIAAKDAYEMLGSPEGELALAEVVIYLALAPKSNAVYRAFGMAKESASKTSYLNPPLTILNAPTKMMKNLGYGKDYQYDPDLPEAFSGQNYFPDSLEKQHFYEPVERGFERELKKRLEYFEQLRLKKKEGHHHHHH", "soluble on expression in E. coli": "soluble"}
{"sequence": "MSLILKRVYIDFEMNMPNSKSKRAVFNSDIIAIGAVMYDEKTKNIDKFKSLIRPVSNEELYPHIQELTHISSEELKSAPSYEEVMRKFKKWLGIFSDIKGIYTFGNLDLTCFNNTDMRSAKKNNHPRFVNNIRDLFVDIKEKYINCGMRCMNYISLKNLLEFVNLEFSGDAHDPLNDAYNLFILDEAITNNVDIQNLLIIRDIIRPPFNDINSNLDNCFNKFKESLYKKEGNYNIVDFSVEIIKTVRMYLLTIIDVNIQNLEIMKDISKKMDTIDKLKDIEEGYFYLLEDVYFDMKDVLEDLMLYRMNEDEYKYEIKNIIKMFDEDLDNEKIYINKCNNLNVVNKEGHHHHHH", "soluble on expression in E. coli": "not soluble"}
